Target: C-terminal TAP-tagged PB1 (influenza A virus, strain not stated)
Test: pull-down

B1: DDX21, plasmid-expressed (pcDNA3 plasmid expressing DDX21) (natural protein)
chain: MPGKLRSDAGLESDTAMKKGETLRKQTEEKEKKEKPKSDKTEEIAEEEETVFPKAKQVKKKAEPSEVDMNSPKSKKAKKKEEPSQNDISPKTKSLRKKKEPIEKKVVSSKTKKVTKNEEPSEEEIDAPKPKKMKKEKEMNGETREKSPKLKNGFPHPEPDCNPSEAASEESNSEIEQEIPVEQKEGAFSNFPISEETIKLLKGRGVTFLFPIQAKTFHHVYSGKDLIAQARTGTGKTFSFAIPLIEKLHGELQDRKRGRAPQVLVLAPTRELANQVSKDFSDITKKLSVACFYGGTPYGGQFERMRNGIDILVGTPGRIKDHIQNGKLDLTKLKHVVLDEVDQMLDMGFADQVEEILSVAYKKDSEDNPQTLLFSATCPHWVFNVAKKYMKSTYEQVDLIGKKTQKTAITVEHLAIKCHWTQRAAVIGDVIRVYSGHQGRTIIFCETKKEAQELSQNSAIKQDAQSLHGDIPQKQREITLKGFRNGSFGVLVATNVAARGLDIPEVDLVIQSSPPKDVESYIHRSGRTGRAGRTGVCICFYQHKEEYQLVQVEQKAGIKFKRIGVPSATEIIKASSKDAIRLLDSVPPTAISHFKQSAEKLIEEKGAVEALAAALAHISGATSVDQRSLINSNVGFVTMILQCSIEMPNISYAWKELKEQLGEEIDSKVKGMVFLKGKLGVCFDVPTASVTEIQEKWHDSRRWQLSVATEQPELEGPREGYGGFRGQREGSRGFRGQRDGNRRFRGQREGSRGPRGQRSGGGNKSNRSQNKGQKRSFSKAFGQ
- percent reduction of TAP-selected PA by DDX21 (1 μg plasmid): 75%
- percent reduction of TAP-selected PB2 by DDX21 (1 μg plasmid): 65%
